Reference: patent publication US20200165324A1

What was measured:
JR-CSF N283A [1] = target: JR-CSF N283A
BG505 T372A [2] = target: BG505 T372A
BG505 T373A [3] = target: BG505 T373A
BG505 G471A [4] = target: BG505 G471A
BG505 L369A [5] = target: BG505 L369A
BG505 S364A [6] = target: BG505 S364A
[7] = target: BG505 Env on BG505 pseudovirus (HIV isolate BG505)
BG505 S365A [8] = target: BG505 S365A
JR-CSF S365A [9] = target: JR-CSF S365A
BG505 K121A [10] = target: BG505 K121A
BG505 N332T [11] = target: BG505 N332T
JR-CSF N362A [12] = target: JR-CSF N362A
JR-CSF T198A [13] = target: JR-CSF T198A
JR-CSF N276A [14] = target: JR-CSF N276A
BG505 N363A [15] = target: BG505 N363A
JR-CSF R476A [16] = target: JR-CSF R476A
BG505 R476A [17] = target: BG505 R476A
JR-CSF S199A [18] = target: JR-CSF S199A
JR-CSF K207A [19] = target: JR-CSF K207A
BG505 L179A [20] = target: BG505 L179A
[21] = target: JR-CSF Env on JR-CSF pseudovirus
JR-CSF G471A [22] = target: JR-CSF G471A
[23] = target: gp120 (isolate 92BR020) (HIV-1 isolate 92BR020); experiment: ELISA on gp120 (isolate 92BR020), buffer pH 5.5
[24] = target: gp120 (isolate 92BR020) (HIV-1 isolate 92BR020); experiment: ELISA on gp120 (isolate 92BR020), buffer pH 6
[25] = target: BG505 gp120 captured from lysed virions (HIV isolate BG505); experiment: ELISA on BG505 gp120 in PBS pH 7.4
JR-CSF N283A [26] = experiment: ELISA, gp120 captured from lysed virions
BG505 T372A [27] = experiment: ELISA, gp120 captured from lysed virions
[28] = target: BG505 gp120 captured from lysed virions (HIV isolate BG505); experiment: ELISA, gp120 captured from lysed virions
BG505 T373A [29] = experiment: ELISA, gp120 captured from lysed virions
BG505 G471A [30] = experiment: ELISA, gp120 captured from lysed virions
JR-CSF V371A = experiment: ELISA, gp120 captured from lysed virions
BG505 L369A [31] = experiment: ELISA, gp120 captured from lysed virions
BG505 N197A = experiment: ELISA, gp120 captured from lysed virions
BG505 S364A [32] = experiment: ELISA, gp120 captured from lysed virions
BG505 V371A = experiment: ELISA, gp120 captured from lysed virions
JR-CSF N262A = experiment: ELISA, gp120 captured from lysed virions
JR-CSF G473A = experiment: ELISA, gp120 captured from lysed virions
JR-CSF E370A = experiment: ELISA, gp120 captured from lysed virions
BG505 N283A = experiment: ELISA, gp120 captured from lysed virions
BG505 E370A = experiment: ELISA, gp120 captured from lysed virions
BG505 S365A [33] = experiment: ELISA, gp120 captured from lysed virions
JR-CSF S365A [34] = experiment: ELISA, gp120 captured from lysed virions
BG505 K121A [35] = experiment: ELISA, gp120 captured from lysed virions
BG505 M475A = experiment: ELISA, gp120 captured from lysed virions
BG505 N332T [36] = experiment: ELISA, gp120 captured from lysed virions
JR-CSF N362A [37] = experiment: ELISA, gp120 captured from lysed virions
JR-CSF T198A [38] = experiment: ELISA, gp120 captured from lysed virions
JR-CSF N276A [39] = experiment: ELISA, gp120 captured from lysed virions
JR-CSF T373A = experiment: ELISA, gp120 captured from lysed virions
BG505 N363A [40] = experiment: ELISA, gp120 captured from lysed virions
JR-CSF R476A [41] = experiment: ELISA, gp120 captured from lysed virions
BG505 R476A [42] = experiment: ELISA, gp120 captured from lysed virions
JR-CSF S199A [43] = experiment: ELISA, gp120 captured from lysed virions
JR-CSF G366A = experiment: ELISA, gp120 captured from lysed virions
JR-CSF N279A = experiment: ELISA, gp120 captured from lysed virions
JR-CSF K207A [44] = experiment: ELISA, gp120 captured from lysed virions
JR-CSF G472A = experiment: ELISA, gp120 captured from lysed virions
BG505 L179A [45] = experiment: ELISA, gp120 captured from lysed virions
BG505 G366A = experiment: ELISA, gp120 captured from lysed virions
BG505 G367A = experiment: ELISA, gp120 captured from lysed virions
JR-CSF G471A [46] = experiment: ELISA, gp120 captured from lysed virions

## 12A12 (antibody)
JR-CSF N283A [1]
  IC50, pseudovirus neutralization: 0.219 µg/mL
BG505 T372A [2]
  IC50, pseudovirus neutralization: 0.037 µg/mL
JR-CSF D279A
  IC50, pseudovirus neutralization: > 50 µg/mL
JR-CSF D474A
  IC50, pseudovirus neutralization: 0.075 µg/mL
JR-CSF P369A
  IC50, pseudovirus neutralization: 0.205 µg/mL
BG505 T373A [3]
  IC50, pseudovirus neutralization: 0.039 µg/mL
BG505 G471A [4]
  IC50, pseudovirus neutralization: 0.029 µg/mL
BG505 L369A [5]
  IC50, pseudovirus neutralization: 0.03 µg/mL
BG505 S364A [6]
  IC50, pseudovirus neutralization: 0.032 µg/mL
[7]
  IC50, pseudovirus neutralization: 0.02 µg/mL
JR-CSF K282A
  IC50, pseudovirus neutralization: 2.33 µg/mL
BG505 S365A [8]
  IC50, pseudovirus neutralization: 0.057 µg/mL
JR-CSF M373A
  IC50, pseudovirus neutralization: 0.134 µg/mL
JR-CSF S365A [9]
  IC50, pseudovirus neutralization: 0.18 µg/mL
BG505 K121A [10]
  IC50, pseudovirus neutralization: 0.053 µg/mL
BG505 N279A
  IC50, pseudovirus neutralization: 0.058 µg/mL
BG505 N332T [11]
  IC50, pseudovirus neutralization: 0.031 µg/mL
BG505 N262A
  IC50, pseudovirus neutralization: 0.017 µg/mL
JR-CSF N362A [12]
  IC50, pseudovirus neutralization: 0.11 µg/mL
BG505 D474A
  IC50, pseudovirus neutralization: 0.02 µg/mL
JR-CSF T198A [13]
  IC50, pseudovirus neutralization: 0.622 µg/mL
JR-CSF N276A [14]
  IC50, pseudovirus neutralization: 2.72 µg/mL
JR-CSF V372A
  IC50, pseudovirus neutralization: 0.214 µg/mL
BG505 N363A [15]
  IC50, pseudovirus neutralization: 0.038 µg/mL
BG505 N276A
  IC50, pseudovirus neutralization: 3 ng/mL
JR-CSF R476A [16]
  IC50, pseudovirus neutralization: 0.082 µg/mL
BG505 R476A [17]
  IC50, pseudovirus neutralization: 0.026 µg/mL
JR-CSF S199A [18]
  IC50, pseudovirus neutralization: 0.032 µg/mL
BG505 K282A
  IC50, pseudovirus neutralization: 0.04 µg/mL
JR-CSF K207A [19]
  IC50, pseudovirus neutralization: 0.383 µg/mL
BG505 L179A [20]
  IC50, pseudovirus neutralization: 0.056 µg/mL
[21]
  IC50, pseudovirus neutralization: 0.219 µg/mL
JR-CSF G471A [22]
  IC50, pseudovirus neutralization: 0.114 µg/mL
[23]
  EC50 (read off the curve): 0.4 µg/mL
[24]
  EC50 (read off the curve): 0.4 µg/mL

## NC-Cow1 (antibody)
JR-CSF N283A [1]
  IC50, pseudovirus neutralization: 6.94 µg/mL
BG505 T372A [2]
  IC50, pseudovirus neutralization: 0.028 µg/mL
BG505 T373A [3]
  IC50, pseudovirus neutralization: 0.016 µg/mL
BG505 G471A [4]
  IC50, pseudovirus neutralization: 0.013 µg/mL
BG505 L369A [5]
  IC50, pseudovirus neutralization: 0.015 µg/mL
BG505 S364A [6]
  IC50, pseudovirus neutralization: 0.014 µg/mL
BG505 S365A [8]
  IC50, pseudovirus neutralization: 0.015 µg/mL
JR-CSF S365A [9]
  IC50, pseudovirus neutralization: 0.129 µg/mL
BG505 K121A [10]
  IC50, pseudovirus neutralization: 0.029 µg/mL
BG505 N332T [11]
  IC50, pseudovirus neutralization: 0.018 µg/mL
JR-CSF N362A [12]
  IC50, pseudovirus neutralization: 0.496 µg/mL
JR-CSF T198A [13]
  IC50, pseudovirus neutralization: 2.98 µg/mL
JR-CSF N276A [14]
  IC50, pseudovirus neutralization: 1.76 µg/mL
BG505 N363A [15]
  IC50, pseudovirus neutralization: 0.013 µg/mL
JR-CSF R476A [16]
  IC50, pseudovirus neutralization: > 50 µg/mL
BG505 R476A [17]
  IC50, pseudovirus neutralization: 0.012 µg/mL
JR-CSF S199A [18]
  IC50, pseudovirus neutralization: 0.404 µg/mL
JR-CSF K207A [19]
  IC50, pseudovirus neutralization: 1.8 µg/mL
BG505 L179A [20]
  IC50, pseudovirus neutralization: 0.018 µg/mL
JR-CSF G471A [22]
  IC50, pseudovirus neutralization: 50 µg/mL
[25]
  EC50 (read off the curve): 0.1 µg/mL
JR-CSF N283A [26]
  EC50: 0.133 µg/mL
BG505 T372A [27]
  EC50: 0.07 µg/mL
[28]
  EC50: 0.04 µg/mL
BG505 T373A [29]
  EC50: 0.12 µg/mL
BG505 G471A [30]
  EC50: 0.05 µg/mL
JR-CSF V371A
  EC50: 1.36 µg/mL
BG505 L369A [31]
  EC50: 0.24 µg/mL
BG505 N197A
  EC50: 0.04 µg/mL
BG505 S364A [32]
  EC50: 0.14 µg/mL
BG505 V371A
  EC50: 0.24 µg/mL
JR-CSF N262A
  EC50: 5.64 µg/mL
JR-CSF G473A
  EC50: 6.83 µg/mL
JR-CSF E370A
  EC50: 1.16 µg/mL
BG505 N283A
  EC50: 0.1 µg/mL
BG505 E370A
  EC50: 0.11 µg/mL
BG505 S365A [33]
  EC50: 0.07 µg/mL
JR-CSF S365A [34]
  EC50: 0.028 µg/mL
BG505 K121A [35]
  EC50: 0.04 µg/mL
BG505 M475A
  EC50: 0.08 µg/mL
BG505 N332T [36]
  EC50: 0.05 µg/mL
JR-CSF N362A [37]
  EC50: 0.038 µg/mL
JR-CSF T198A [38]
  EC50: 0.045 µg/mL
JR-CSF N276A [39]
  EC50: 0.029 µg/mL
JR-CSF T373A
  EC50: 0.067 µg/mL
BG505 N363A [40]
  EC50: 0.09 µg/mL
JR-CSF R476A [41]
  EC50: 0.281 µg/mL
BG505 R476A [42]
  EC50: 0.07 µg/mL
JR-CSF S199A [43]
  EC50: 0.058 µg/mL
JR-CSF G366A
  EC50: 0.027 µg/mL
JR-CSF N279A
  EC50: 0.036 µg/mL
JR-CSF K207A [44]
  EC50: 0.052 µg/mL
JR-CSF G472A
  EC50: 11.2 µg/mL
BG505 L179A [45]
  EC50: 0.05 µg/mL
BG505 G366A
  EC50: 0.13 µg/mL
BG505 G367A
  EC50: 1.34 µg/mL
JR-CSF G471A [46]
  EC50: 0.148 µg/mL
